From the Immune Epitope Database (IEDB)

biological target: HLA-A*02:01; assay: IEDB peptide-MHC binding, purified MHC/competitive/radioactivity; filed as Kd, often an IC50 or EC50 that approximates it; ≥ and ≤ were set here for values at or beyond the usual limits of such assays; conditions: source organism: Trypanosoma cruzi

Sequence	Kd [nM]
LLPSLFLLL	125
FVNHDFTVV	300
GIRPYEILA	33
LLGLWGLTGL	1.3
FLYNRPLSV	146
VLLPSLFLLL	99
IAGGVMAVV	196
VLLPSLFLL	36
WVFPESISPV	109
IVMGNGTLV	998
LLLGLWGFAA	534
PLLLLGLWGL	643
FVDYNFTIV	240
LLLLGLWGL	22
KLFPEVIDL	203
LLYSDDALHL	317
MLQDGNKGSV	840
VLAKDGTEV	67
FLLLGLWGFA	207
SVYVDAKLV	102
